# From article PMC7020990, “Structural and biochemical analysis of the metallo‐β‐lactamase L1 from emerging pathogen Stenotrophomonas maltophilia revealed the subtle but distinct di‐metal scaffold for catalytic activity” (Protein Science : A Publication of the Protein Society, 2019)
# Biological target: the molecule itself
# Experiment: crystal structure; L1‐Native in space group P2_(1) with the tetramer in the asymmetric unit; all other L1 structures in P6_(4)22 with one chain in the asymmetric unit and the same tetramer formed by crystallographic twofold symmetries
protein,measurement,value
"Metallo‐β‐lactamase L1 from Stenotrophomonas maltophilia K279a (enzyme, N-terminal Ser‐Asn‐Ala cloning artifact left after TEV cleavage (numbered residues 17–19); Metallo‐β‐lactamase L1 (subclass B3), S. maltophilia K279a, residues 20-290; 88% identical to the L1 of the other strain in earlier structures; Two Zn ions per chain in the native form; Cloned in pMCSG53; also called L1 MBL; L1‐Native; not shown: His‐tag, N-terminal, cleaved) SNASAAEAPLPQLRAYTVDASWLQPMAPLQVADHTWQIGTEDLTALLVQTAEGAVLLDGGMPQMAGHLLDNMKLRGVAPQDLRLILLSHAHADHAGPVAELKRRTGAHVAANAETAVLLARGGSNDLHFGDGITYPPASADRIIMDGEVVTVGGIAFTAHFMPGHTPGSTAWTWTDTRDGKPVRIAYADSLSAPGYQLKGNPRYPRLIEDYKRSFATVRALPCDLLLTPHPGASNWNYAVGSKASAEALTCNAYADAAEKKFDAQLARETAGTR",stoichiometry N,4
